Data from paper PMC6451096, “Molecular basis for transfer RNA recognition by the double-stranded RNA-binding domain of human dihydrouridine synthase 2”.

Assays:
hDus2 dsRBD K419A-K420A = biological target: T1, hDus2 dsRBD K419A-K420A (Homo sapiens, UniProt Q9NX74 339-451, K419A;K420A); experiment: EMSA; EMSA: 50 mM Tris-HCl pH 8, 10% glycerol, 5 mM DTT, 150 mM ammonium acetate, 1 uM tRNALys3, 20 min room temperature; 6% native PAGE at 4 C; conditions: protein: recombinant; label: 15N for tRNA-observed NMR; tRNA fold
T1 sequence: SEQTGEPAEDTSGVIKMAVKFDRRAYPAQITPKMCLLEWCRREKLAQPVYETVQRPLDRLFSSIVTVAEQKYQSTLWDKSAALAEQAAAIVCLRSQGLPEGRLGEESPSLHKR

hDus2 dsRBD R361A-R362A [1] = biological target: T2, hDus2 dsRBD R361A-R362A (Homo sapiens, UniProt Q9NX74 339-451, R361A;R362A); experiment: as above; conditions: protein: recombinant; label: 15N for tRNA-observed NMR; tRNA fold
T2 sequence: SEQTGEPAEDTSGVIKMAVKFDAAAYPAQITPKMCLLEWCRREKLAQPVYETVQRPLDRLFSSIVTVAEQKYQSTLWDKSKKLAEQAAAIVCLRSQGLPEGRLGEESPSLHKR

hDus2 dsRBD K420A = biological target: T3, hDus2 dsRBD K420A (Homo sapiens, UniProt Q9NX74 339-451, K420A); experiment: as above; conditions: protein: recombinant; label: 15N for tRNA-observed NMR; tRNA fold
T3 sequence: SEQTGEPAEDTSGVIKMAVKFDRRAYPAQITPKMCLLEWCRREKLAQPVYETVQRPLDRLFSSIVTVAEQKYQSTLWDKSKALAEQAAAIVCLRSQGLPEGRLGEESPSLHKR

hDus2 dsRBD R397A = biological target: T4, hDus2 dsRBD R397A (Homo sapiens, UniProt Q9NX74 339-451, R397A); experiment: as above; conditions: protein: recombinant; label: 15N for tRNA-observed NMR; tRNA fold
T4 sequence: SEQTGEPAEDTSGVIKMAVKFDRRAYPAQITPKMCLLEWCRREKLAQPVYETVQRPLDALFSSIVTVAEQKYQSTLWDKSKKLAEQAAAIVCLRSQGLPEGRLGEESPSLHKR

hDus2 dsRBD K371A = biological target: T5, hDus2 dsRBD K371A (Homo sapiens, UniProt Q9NX74 339-451, K371A); experiment: as above; conditions: protein: recombinant; label: 15N for tRNA-observed NMR; tRNA fold
T5 sequence: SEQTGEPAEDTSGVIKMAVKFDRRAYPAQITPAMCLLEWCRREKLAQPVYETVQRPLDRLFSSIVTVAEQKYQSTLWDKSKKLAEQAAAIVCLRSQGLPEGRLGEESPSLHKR

hDus2 dsRBD K419A = biological target: T6, hDus2 dsRBD K419A (Homo sapiens, UniProt Q9NX74 339-451, K419A); experiment: as above; conditions: protein: recombinant; label: 15N for tRNA-observed NMR; tRNA fold
T6 sequence: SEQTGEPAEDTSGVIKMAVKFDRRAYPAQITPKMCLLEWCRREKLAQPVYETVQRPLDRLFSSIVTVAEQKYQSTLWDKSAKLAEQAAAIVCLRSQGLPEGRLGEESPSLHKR

hDus2 full length [2] = biological target: T7, hDus2 full length (Homo sapiens, UniProt Q9NX74 1-493); experiment: SEC-MALLS; 1:1 protein:RNA; EMSA: 50 mM Tris-HCl pH 8, 10% glycerol, 5 mM DTT, 150 mM ammonium acetate, 1 uM tRNALys3, 20 min room temperature; 6% native PAGE at 4 C; conditions: protein: recombinant; label: 15N for tRNA-observed NMR; tRNA fold
T7 sequence (Q9NX74 whole entry): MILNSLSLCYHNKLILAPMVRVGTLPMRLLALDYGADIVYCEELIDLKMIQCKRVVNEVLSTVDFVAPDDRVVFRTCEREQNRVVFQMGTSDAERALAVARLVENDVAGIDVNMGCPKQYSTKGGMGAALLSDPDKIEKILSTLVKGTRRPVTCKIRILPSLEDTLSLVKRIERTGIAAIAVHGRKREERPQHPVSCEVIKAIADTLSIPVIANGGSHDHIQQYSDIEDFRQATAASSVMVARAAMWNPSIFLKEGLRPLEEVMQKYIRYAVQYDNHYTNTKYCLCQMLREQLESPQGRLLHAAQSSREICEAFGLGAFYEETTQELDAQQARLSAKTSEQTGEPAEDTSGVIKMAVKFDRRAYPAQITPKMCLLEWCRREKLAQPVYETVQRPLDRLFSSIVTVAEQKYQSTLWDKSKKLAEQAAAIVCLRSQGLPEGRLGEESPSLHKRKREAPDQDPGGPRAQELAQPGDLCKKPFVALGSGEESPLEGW

hDus2 dsRBD R362A = biological target: T8, hDus2 dsRBD R362A (Homo sapiens, UniProt Q9NX74 339-451, R362A); experiment: EMSA; no impact of mutation; EMSA: 50 mM Tris-HCl pH 8, 10% glycerol, 5 mM DTT, 150 mM ammonium acetate, 1 uM tRNALys3, 20 min room temperature; 6% native PAGE at 4 C; conditions: protein: recombinant; label: 15N for tRNA-observed NMR; tRNA fold
T8 sequence: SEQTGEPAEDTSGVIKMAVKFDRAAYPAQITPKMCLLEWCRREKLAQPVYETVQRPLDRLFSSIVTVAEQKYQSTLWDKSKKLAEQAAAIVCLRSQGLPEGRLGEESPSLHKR

hDus2 dsRBD WT [3] = biological target: T9, hDus2 dsRBD WT (Homo sapiens, UniProt Q9NX74 339-451); experiment: EMSA; apparent Kd shown only in histogram; EMSA: 50 mM Tris-HCl pH 8, 10% glycerol, 5 mM DTT, 150 mM ammonium acetate, 1 uM tRNALys3, 20 min room temperature; 6% native PAGE at 4 C; conditions: protein: recombinant; label: 15N for tRNA-observed NMR; tRNA fold
T9 sequence: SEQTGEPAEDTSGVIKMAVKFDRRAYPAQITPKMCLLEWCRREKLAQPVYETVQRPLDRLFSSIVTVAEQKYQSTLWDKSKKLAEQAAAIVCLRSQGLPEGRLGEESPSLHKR

hDus2 dsRBD R361A = biological target: T10, hDus2 dsRBD R361A (Homo sapiens, UniProt Q9NX74 339-451, R361A); experiment: EMSA; EMSA: 50 mM Tris-HCl pH 8, 10% glycerol, 5 mM DTT, 150 mM ammonium acetate, 1 uM tRNALys3, 20 min room temperature; 6% native PAGE at 4 C; conditions: protein: recombinant
T10 sequence: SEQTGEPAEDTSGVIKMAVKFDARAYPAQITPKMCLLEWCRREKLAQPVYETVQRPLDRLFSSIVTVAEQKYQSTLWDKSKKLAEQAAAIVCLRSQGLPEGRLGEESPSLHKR

hDus2 dsRBD R361A-R362A [4] = biological target: T2, hDus2 dsRBD R361A-R362A; experiment: as above; conditions: protein: recombinant
hDus2 dsRBD WT [5] = biological target: T9, hDus2 dsRBD WT; experiment: X-ray crystallography; 20 mM MgCl2 in reservoir; EMSA: 50 mM Tris-HCl pH 8, 10% glycerol, 5 mM DTT, 150 mM ammonium acetate, 1 uM tRNALys3, 20 min room temperature; 6% native PAGE at 4 C; conditions: protein: recombinant
hDus2 full length [6] = biological target: T7, hDus2 full length; experiment: EMSA; same affinity as for deltaACS; value only in Fig S12e; EMSA: 50 mM Tris-HCl pH 8, 10% glycerol, 5 mM DTT, 150 mM ammonium acetate, 1 uM tRNALys3, 20 min room temperature; 6% native PAGE at 4 C; conditions: protein: recombinant; tRNA fold
hDus2 full length [7] = biological target: T7, hDus2 full length; experiment: EMSA; same affinity as for full tRNA; value only in Fig S12e; EMSA: 50 mM Tris-HCl pH 8, 10% glycerol, 5 mM DTT, 150 mM ammonium acetate, 1 uM tRNALys3, 20 min room temperature; 6% native PAGE at 4 C; conditions: protein: recombinant; tRNA fold, anticodon stem removed

B1: human tRNALys3 (structured_RNA)
RNA: GCCCGGAUAGCUCAGUCGGUAGAGCAUCAGACUUUUAAUCUGAGGGUCCAGGGUUCAAGUCCCUGUUCGGGCGCCA
modifications: modified in vivo in E. coli (Psi39 mentioned)
Question: How did the binding signal (hDus2 dsRBD K419A-K420A) turn out when B1 was run?
Answer: ~17 fold lower affinity than WT

Question: And the binding signal (hDus2 dsRBD R361A-R362A [1])?
Answer: ~6 fold lower affinity than WT

Question: What about the binding signal (hDus2 dsRBD K420A) of the same binder?
Answer: > 4 fold lower affinity than WT

Question: And the binding signal (hDus2 dsRBD R397A)?
Answer: ~2 fold lower affinity than WT

Question: What about the binding signal (hDus2 dsRBD K371A) of the same binder?
Answer: ~8 fold lower affinity than WT

Question: What about the binding signal (hDus2 dsRBD K419A) of the same binder?
Answer: > 4 fold lower affinity than WT

Question: Does B1 bind (hDus2 full length [2])?
Answer: binds

Question: Does B1 bind (hDus2 dsRBD R362A)?
Answer: binds

Question: Does B1 bind (hDus2 dsRBD WT [3])?
Answer: binds

B2: 11-nt palindromic dsRNA (dsRNA)
RNA 1: CGAACUUCGCG
RNA 2: CGAACUUCGCG
Question: B2 was tested. Which binding signal (hDus2 dsRBD R361A) did it give?
Answer: ~3.7 fold lower affinity than same mutant for tRNA

Question: What about the binding signal (hDus2 dsRBD R361A-R362A [4]) of the same binder?
Answer: ~1 affinity relative to same mutant for tRNA (similar)

Question: Does B2 bind (hDus2 dsRBD WT [5])?
Answer: binds

B3: tRNAPhe transcript (structured_RNA)
RNA: GCGGAUUUAGCUCAGUUGGGAGAGCGCCAGACUGAAGAUCUGGAGGUCCUGUGUUCGAUCCACAGAAUUCGCACCA
Question: Does B3 bind (hDus2 full length [6])?
Answer: binds

B4: tRNAPhe-deltaACS transcript (structured_RNA)
RNA: GCGGAUUUAGCUCAGUUGGGAGAGCGCCGAAGGGAGGUCCUGUGUUCGAUCCACAGAAUUCGCACCA
Question: Does B4 bind (hDus2 full length [7])?
Answer: binds
